Assay [1] has as its target T1, mouse DR3, full-length, expressed on HEK293 NFkB-luciferase reporter cells (mouse).
T1 chain: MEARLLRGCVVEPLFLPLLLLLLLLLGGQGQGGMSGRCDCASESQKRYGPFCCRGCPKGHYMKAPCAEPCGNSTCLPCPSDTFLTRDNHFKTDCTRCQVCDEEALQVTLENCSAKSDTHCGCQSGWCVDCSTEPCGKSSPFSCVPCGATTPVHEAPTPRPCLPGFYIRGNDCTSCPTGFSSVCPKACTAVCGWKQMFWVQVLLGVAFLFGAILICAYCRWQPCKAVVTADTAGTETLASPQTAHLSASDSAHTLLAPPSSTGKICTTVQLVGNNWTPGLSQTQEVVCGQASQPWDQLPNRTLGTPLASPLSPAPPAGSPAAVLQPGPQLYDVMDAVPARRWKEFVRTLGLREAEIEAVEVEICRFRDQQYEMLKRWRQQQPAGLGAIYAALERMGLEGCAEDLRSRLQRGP
Nature of the assay: cell-based or functional assay.

Assay [2] concerns the target T2, cynomolgus monkey TL1A, soluble, E. coli-expressed, residues 72-251 of SEQ ID NO:248 (cynomolgus monkey (Macaca fascicularis), UniProt O95150 72-251 (human entry)).
T2 construct: with or without N-terminal Met; also called MfTL1A (E. Coli)
T2 chain: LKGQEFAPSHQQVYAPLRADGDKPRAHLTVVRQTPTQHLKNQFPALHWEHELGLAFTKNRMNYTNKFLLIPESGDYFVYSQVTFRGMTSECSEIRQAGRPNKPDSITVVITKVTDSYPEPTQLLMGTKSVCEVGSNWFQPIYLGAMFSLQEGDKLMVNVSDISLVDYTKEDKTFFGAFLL
Nature of the assay: SPR 37C, mAb captured. As to the method: (§1) Measurements were conducted on a T100 BIACORE™ instrument. […] Kinetic association (kₐ) and dissociation (kd) rate constants were determined by fitting the data to a 1:1 binding model using BIAevaluation 4.1 curve fitting software (BIAcore Life Sciences). Molar concentrations of TL1A/Fhm used in the data fitting assumed a monomeric state for TL1A in solution. Binding dissociation equilibrium constants (KD) and dissociative half-lives (t_{1/2}) were calculated from the kinetic rate constants as: KD (M)=kd/kₐ; and t_{1/2} (min)=[In2/(60*kd)].

The target in assay [3] is T3, Fhm, hTL1A(Q167R), soluble, CHO-expressed, residues 72-251 of SEQ ID NO:246 (human, UniProt O95150 72-251).
T3 construct: also called Fhm (CHO); FHM (CHO)
T3 chain: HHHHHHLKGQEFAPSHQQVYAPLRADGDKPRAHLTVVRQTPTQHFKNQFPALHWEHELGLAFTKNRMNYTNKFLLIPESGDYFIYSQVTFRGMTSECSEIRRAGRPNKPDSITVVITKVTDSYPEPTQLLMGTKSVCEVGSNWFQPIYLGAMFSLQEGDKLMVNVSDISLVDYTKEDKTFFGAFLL
The assay is described as follows: ELISA, blocks FHM (150 pM) binding hDR3-Fc; blocking of FHM binding to hDR3. As to the method: (§2) The ability of antibodies to block human TL1A binding to its cognate receptors, the DR3 and DcR3 receptors, was measured using a competition sandwich ELISA. In addition, blocking of a human TL1A variant FHM (human TL1A Q167R) and the cynomolgus monkey (Macaca fascicularis) TL1A (MfTL1A) protein binding to the human DR3 or DcR3 receptors was measured in the same manner. Constant amounts of biotinylated human TL1A or FHM (both expressed with a 6-His tag in CHO cells) or biotinylated MfTL1A (expressed in CHO cells) were separately titrated with varying amounts of antibodies. The antibody-protein complexes were incubated in solution (1 hr, 25° C.) and then transferred to microtiter plates coated with human DR3 (hDR3) or human DcR3 (hDcR3) expressed as human IgG1 Fc fusion proteins. After one hour at 25° C. the wells were washed, and bound human or monkey TL1A was detected with streptavidin conjugated with horseradish peroxidase (HRP). Wells were developed with a TMB solution to produce a colorimetric reaction and quenched with aqueous sulfuric acid before reading absorbance at 450 nm on a Perkin-Elmer Victor X5 plate reader. A sigmoidal dose-response curve was fit to the data using the Prism™ data analysis package. […] Both fully human anti-hTL1A mAbs and comparator antibodies, i.e., control mAb1 (an anti-hTL1A antibody with heavy and light chain variable domains having the amino acid sequences corresponding to SEQ ID NOS:21 and 27, respectively, of US 2009/0280116) and control mAb3 (an anti-hTL1A antibody with heavy and light chain variable domains having the amino acid sequences corresponding to SEQ ID NOS:57 and 48, respectively, of US 2009/0280116), were included in the study. NB: No binding under the conditions tested; NT: Not tested. Concentrations of biotinylated soluble ligands: (1) 150 pM; (2) 500 pM; (3) 10 pM; and (4) 50 pM.
Background: ELISA stands for enzyme-linked immunosorbent assay.

Assay [4] has as its target T4, cynomolgus monkey TL1A, soluble, CHO-expressed, residues 72-251 of SEQ ID NO:248 with N-terminal His6-tag (cynomolgus monkey (Macaca fascicularis), UniProt O95150 72-251 (human entry)).
T4 construct: also called MfTL1A; MfTL1A (CHO)
T4 chain: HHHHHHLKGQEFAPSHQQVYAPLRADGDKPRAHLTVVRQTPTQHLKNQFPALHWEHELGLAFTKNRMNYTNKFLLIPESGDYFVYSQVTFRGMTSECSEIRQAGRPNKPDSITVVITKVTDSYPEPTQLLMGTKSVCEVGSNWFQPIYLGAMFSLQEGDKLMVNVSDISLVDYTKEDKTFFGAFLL
The assay is described as follows: ELISA, blocks MfTL1A (500 pM) binding hDR3-Fc. As to the method:
as §2

Assay [5] has as its target T5, mouse TL1A, soluble, E. coli-expressed, residues 76-252 of SEQ ID NO:250 (mouse, UniProt Q5UBV8 76-252).
T5 construct: with or without N-terminal Met; also called mTL1A (E. Coli)
T5 sequence: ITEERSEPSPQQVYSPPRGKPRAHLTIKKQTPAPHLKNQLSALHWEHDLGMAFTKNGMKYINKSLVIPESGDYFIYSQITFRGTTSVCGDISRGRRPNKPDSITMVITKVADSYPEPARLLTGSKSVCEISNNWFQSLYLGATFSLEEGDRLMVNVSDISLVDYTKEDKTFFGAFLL
Nature of the assay: SPR 25C, steady state. As to the method:
Measurements were conducted on a T100 BIACORE™ instrument. […] Kinetic association (kₐ) and dissociation (kd) rate constants were determined by fitting the data to a 1:1 binding model using BIAevaluation 4.1 curve fitting software (BIAcore Life Sciences). Molar concentrations of TL1A/Fhm used in the data fitting assumed a monomeric state for TL1A in solution. […]

For assay [6], the target named is T4, cynomolgus monkey TL1A, soluble, …. Nature of the assay: ELISA, blocks MfTL1A (50 pM) binding hDcR3-Fc. As to the method:
as §2

In assay [7] the target is T6, human TL1A, soluble, CHO-expressed, residues 72-251 of SEQ ID NO:244 with N-terminal His6-tag (human, UniProt O95150 72-251).
T6 construct: also called hTL1A; hTL1A (CHO)
T6 sequence: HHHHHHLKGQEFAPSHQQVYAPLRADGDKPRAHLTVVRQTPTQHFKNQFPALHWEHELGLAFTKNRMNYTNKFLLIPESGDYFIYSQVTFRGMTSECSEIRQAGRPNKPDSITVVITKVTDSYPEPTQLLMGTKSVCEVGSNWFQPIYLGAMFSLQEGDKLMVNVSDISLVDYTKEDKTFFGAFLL
Nature of the assay: ELISA, blocks hTL1A (10 pM) binding hDcR3-Fc. As to the method: as §2

In assay [8] the target is T2, cynomolgus monkey TL1A, soluble, E. …. The assay is described as follows: SPR 25C, mAb captured. As to the method: as §1
For assay [9], the target named is T7, Fhm, hTL1A(Q167R), soluble, E. coli-expressed, residues 72-251 of SEQ ID NO:246 (human, UniProt O95150 72-251).
T7 construct: with or without N-terminal Met
T7 chain: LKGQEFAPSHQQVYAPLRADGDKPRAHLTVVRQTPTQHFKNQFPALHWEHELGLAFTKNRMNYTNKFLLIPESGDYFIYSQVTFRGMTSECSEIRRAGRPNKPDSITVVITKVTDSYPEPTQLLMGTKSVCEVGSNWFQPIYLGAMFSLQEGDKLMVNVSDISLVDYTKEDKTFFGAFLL
The assay is described as follows: SPR 25C, mAb captured. As to the method:
as §1

The target of assay [10] is T6, human TL1A, soluble, CHO-expressed, …. The assay is described as follows: ELISA, blocks hTL1A (150 pM) binding hDR3-Fc. As to the method: as §2
For assay [11], the target named is T8, human DR3, full-length, expressed on HEK293 NFkB-luciferase reporter cells (human, UniProt Q93038 25-417).
T8 sequence: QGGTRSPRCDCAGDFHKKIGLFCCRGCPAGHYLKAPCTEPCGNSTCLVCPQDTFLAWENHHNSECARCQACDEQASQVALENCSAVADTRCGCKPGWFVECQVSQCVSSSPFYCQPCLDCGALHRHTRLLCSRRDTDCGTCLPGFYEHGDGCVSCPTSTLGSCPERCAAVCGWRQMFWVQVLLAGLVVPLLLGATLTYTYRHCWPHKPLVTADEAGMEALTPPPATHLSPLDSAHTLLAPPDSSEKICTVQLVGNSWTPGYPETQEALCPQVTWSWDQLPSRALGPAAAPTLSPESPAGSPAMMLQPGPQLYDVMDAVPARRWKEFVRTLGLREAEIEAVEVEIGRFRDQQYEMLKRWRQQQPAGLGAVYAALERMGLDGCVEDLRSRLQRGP
Nature of the assay: cell-based or functional assay.

The Kd is a measure of binding affinity in units of concentration. In general, IC50 refers to the concentration that inhibits the measured activity by half.

B1: full length mouse TL1A expressed on HEK293 cells (ligand)
chain: MAEELGLGFGEGVPVEVLPEGCRHRPEARAGLAARSKACLALTCCLLSFPILAGLSTLLMAGQLRVPGKDCMLRAITEERSEPSPQQVYSPPRGKPRAHLTIKKQTPAPHLKNQLSALHWEHDLGMAFTKNGMKYINKSLVIPESGDYFIYSQITFRGTTSVCGDISRGRRPNKPDSITMVITKVADSYPEPARLLTGSKSVCEISNNWFQSLYLGATFSLEEGDRLMVNVSDISLVDYTKEDKTFFGAFLL
On to B1, for which the “EC50 (cells), NFkB-luciferase reporter” value in [1] stood at 12400 cells.

B2: H2M1804N (antibody, V domains shown)
VH: QVQLHQWGAGLLKPSETLSLTCAVSGVSFSDYHWAWIRQSPGKGLEWIGDINHRGRTNYNPSLKSRVTISLDTSGNPFSLKLTSVTAADTAVYYCARDFPNWVFDSWGQGILVTVSS
VL: EIVLSQSPGTLSLSPGERATLSCRASQSVSSSFLAWYQQYPGQAPRLLIYGASRRATGIPDRFRGSGSGTDFTLTISRLEPEDFAVYYCQQYGSSPLTFGGGTKVENK
notes: chimeric hybridoma antibody: human variable regions, mouse constant regions (mouse Fc)
Consider B2, for which the Kd in [2] worked out at 0.218 nM; in [8], 0.176 nM; in assay [9], 0.192 nM. Besides, the t1/2 in [2] turned out to be 1.97 h; in assay [8], 2.87 h; in assay [9] it was 1.8 h. The IC50 in assay [3] turned out to be 0.102 nM; in [4], 0.081 nM; in assay [6], 0.009 nM; in assay [7], 0.12 nM; in assay [10] it was 0.046 nM. The binding result in assay [5] is on record as “no binding (tested: up to 100 nM)”.

B3: full-length Fhm, human TL1A(Q167R), expressed on HEK293 cells (ligand)
chain: MAEDLGLSFGETASVEMLPEHGSCRPKARSSSARWALTCCLVLLPFLAGLTTYLLVSQLRAQGEACVQFQALKGQEFAPSHQQVYAPLRADGDKPRAHLTVVRQTPTQHFKNQFPALHWEHELGLAFTKNRMNYTNKFLLIPESGDYFIYSQVTFRGMTSECSEIRRAGRPNKPDSITVVITKVTDSYPEPTQLLMGTKSVCEVGSNWFQPIYLGAMFSLQEGDKLMVNVSDISLVDYTKEDKTFFGAFLL
B3: the “EC50 (cells), NFkB-luciferase reporter” value in [11] worked out at 47900 cells.

B4: full-length cynomolgus monkey TL1A expressed on HEK293 cells (ligand)
chain: MAEDLGLSFGETASVEMLPEHGSCRPKARSSSACWALTCCLVLLPFLAGLTTYLLVSQLRAQGEACVQLQDLKGQEFAPSHQQVYAPLRADGDKPRAHLTVVRQTPTQHLKNQFPALHWEHELGLAFTKNRMNYTNKFLLIPESGDYFVYSQVTFRGMTSECSEIRQAGRPNKPDSITVVITKVTDSYPEPTQLLMGTKSVCEVGSNWFQPIYLGAMFSLQEGDKLMVNVSDISLVDYTKEDKTFFGAFLL
With B4, the “EC50 (cells), NFkB-luciferase reporter” value in [11] turned out to be 8460 cells.

B5: H2M1818N (antibody, V domains shown)
VH: RLQLVESGGGLVKPGGSLKLSCAASGFTISDYYMSWIRQAPGKGLEWVSYIGGSGSTIYYADSVKGRFTISRDNAKNSLYLQMNSLRAEDTAVYYCAREDADSYYYYGMDVWGQGTTVTVSS
VL: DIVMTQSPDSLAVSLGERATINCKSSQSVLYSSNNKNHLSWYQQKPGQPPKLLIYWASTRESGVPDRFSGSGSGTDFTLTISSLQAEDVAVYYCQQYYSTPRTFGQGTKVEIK
notes: as for B2
Take B5: the Kd amounted to 4.1 nM in [2], 171 nM in [5], 1.84 nM in assay [8] and 1.08 nM in [9]. For the same molecule, the values for the t1/2 in assay [2], in assay [8] and in assay [9] were 0.05 h, 0.167 h and 0.283 h, respectively. The 50% inhibitory concentration (IC50) was 0.317 nM in assay [3]; 0.239 nM in assay [4]; 0.055 nM in assay [6]; 0.396 nM in assay [7]; 0.154 nM in [10].
